The text below walks through data of patent publication US20140274782A1, “AFFINITY REAGENTS AND METHODS FOR DETECTION, PURIFICATION, AND PROTEOMIC ANALYSIS OF METHYLATED PROTEINS” (The Board of Trustees of the Leland Stanford Junior …, priority 2013, published 2014).

For one assay, the system named is 3×MBT domain of L3MBTL1. The assay can be described thus: Triple SILAC pull-down, 3xMBT/3xMBTD355N ratio (cytoplasmic, nuclear and chromatin fractions of 293T cells).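 As to all read-outs here: proteins quantified with MaxQuant, requiring at least two unique peptides and quantification in both label directions, normalized to the mean of proteins from a digested loading control.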 The class given is binding, human. The settings on record: SILAC ratio 3xMBT vs 3xMBTD355N pull-down, 293T cells, all values in log base 2; for 3xMBT/D355N UNC Heavy: experiment with UNC0638 in heavy SILAC media; for 3xMBT/D355N UNC Light: experiment with UNC0638 in light SILAC media.

The next assay has as its target T1, G9a and GLP (Homo sapiens, UniProt Q96KQ7+Q9H9B1).
T1 sequence (Q96KQ7 2-1210 limits assumed): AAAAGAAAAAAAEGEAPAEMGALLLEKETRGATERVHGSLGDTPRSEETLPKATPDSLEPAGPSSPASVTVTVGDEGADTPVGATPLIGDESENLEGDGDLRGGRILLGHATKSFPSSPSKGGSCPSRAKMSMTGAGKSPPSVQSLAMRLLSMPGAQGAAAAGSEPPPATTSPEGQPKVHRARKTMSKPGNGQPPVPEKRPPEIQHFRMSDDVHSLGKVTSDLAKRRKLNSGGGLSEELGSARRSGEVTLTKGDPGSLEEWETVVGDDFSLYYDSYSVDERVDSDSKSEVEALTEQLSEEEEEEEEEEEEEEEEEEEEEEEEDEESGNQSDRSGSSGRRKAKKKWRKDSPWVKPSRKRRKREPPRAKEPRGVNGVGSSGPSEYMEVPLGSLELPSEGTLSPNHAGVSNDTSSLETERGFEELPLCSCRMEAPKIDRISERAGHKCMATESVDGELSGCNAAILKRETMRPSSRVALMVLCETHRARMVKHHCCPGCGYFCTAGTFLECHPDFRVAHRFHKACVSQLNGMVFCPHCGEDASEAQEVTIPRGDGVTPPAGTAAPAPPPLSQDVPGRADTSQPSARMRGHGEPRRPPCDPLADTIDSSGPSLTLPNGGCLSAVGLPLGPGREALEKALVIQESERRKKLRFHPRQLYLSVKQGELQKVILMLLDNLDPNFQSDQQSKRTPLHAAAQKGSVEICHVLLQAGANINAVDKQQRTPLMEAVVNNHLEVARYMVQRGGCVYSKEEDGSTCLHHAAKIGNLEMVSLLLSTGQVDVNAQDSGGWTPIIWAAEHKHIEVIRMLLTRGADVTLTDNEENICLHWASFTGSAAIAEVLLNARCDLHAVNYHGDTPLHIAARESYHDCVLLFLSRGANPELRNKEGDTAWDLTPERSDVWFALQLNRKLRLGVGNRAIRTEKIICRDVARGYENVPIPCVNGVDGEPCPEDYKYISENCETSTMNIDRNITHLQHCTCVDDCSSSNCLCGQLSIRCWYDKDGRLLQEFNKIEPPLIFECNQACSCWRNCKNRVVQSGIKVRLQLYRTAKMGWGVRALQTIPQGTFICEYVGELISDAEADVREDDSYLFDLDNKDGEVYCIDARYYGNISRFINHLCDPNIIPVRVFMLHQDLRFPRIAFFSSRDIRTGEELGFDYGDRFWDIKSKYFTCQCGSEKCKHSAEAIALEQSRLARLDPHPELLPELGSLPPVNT
T1 sequence (Q9H9B1 2-1298 limits assumed): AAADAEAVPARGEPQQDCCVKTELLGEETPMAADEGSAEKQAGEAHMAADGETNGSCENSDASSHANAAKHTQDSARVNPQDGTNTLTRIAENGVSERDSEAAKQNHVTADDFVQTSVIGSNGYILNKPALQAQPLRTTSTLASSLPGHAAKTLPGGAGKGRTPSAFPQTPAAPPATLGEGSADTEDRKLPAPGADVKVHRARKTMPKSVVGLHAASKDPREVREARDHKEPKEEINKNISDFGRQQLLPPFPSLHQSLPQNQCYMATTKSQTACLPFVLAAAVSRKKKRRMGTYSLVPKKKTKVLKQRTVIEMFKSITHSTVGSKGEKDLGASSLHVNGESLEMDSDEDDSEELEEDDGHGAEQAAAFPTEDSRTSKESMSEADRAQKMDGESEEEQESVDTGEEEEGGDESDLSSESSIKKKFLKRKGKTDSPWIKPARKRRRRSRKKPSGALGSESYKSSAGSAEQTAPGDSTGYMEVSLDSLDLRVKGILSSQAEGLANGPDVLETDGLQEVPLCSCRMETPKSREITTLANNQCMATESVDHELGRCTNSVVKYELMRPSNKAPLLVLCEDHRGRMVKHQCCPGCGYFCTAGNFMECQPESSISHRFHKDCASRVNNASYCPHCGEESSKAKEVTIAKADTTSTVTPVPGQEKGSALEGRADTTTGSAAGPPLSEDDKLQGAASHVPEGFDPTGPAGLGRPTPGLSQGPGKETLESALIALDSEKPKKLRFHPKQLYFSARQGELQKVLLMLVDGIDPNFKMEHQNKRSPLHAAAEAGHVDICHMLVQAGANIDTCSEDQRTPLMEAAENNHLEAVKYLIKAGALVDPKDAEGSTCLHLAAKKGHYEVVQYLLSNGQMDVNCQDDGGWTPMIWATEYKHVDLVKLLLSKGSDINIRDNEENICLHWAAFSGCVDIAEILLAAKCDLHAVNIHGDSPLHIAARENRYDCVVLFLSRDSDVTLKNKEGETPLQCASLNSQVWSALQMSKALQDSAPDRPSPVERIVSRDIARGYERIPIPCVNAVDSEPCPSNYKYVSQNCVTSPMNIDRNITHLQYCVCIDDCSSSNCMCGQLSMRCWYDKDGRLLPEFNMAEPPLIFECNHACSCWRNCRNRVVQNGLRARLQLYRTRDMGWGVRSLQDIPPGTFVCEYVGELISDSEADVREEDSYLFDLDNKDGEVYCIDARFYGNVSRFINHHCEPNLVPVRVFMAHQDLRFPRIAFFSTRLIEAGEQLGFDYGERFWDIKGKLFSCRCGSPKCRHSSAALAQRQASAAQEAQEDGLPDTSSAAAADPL
The assay can be described thus: Triple SILAC pull-down after UNC0638 treatment of 293T cells, DMSO/UNC0638 ratio of protein captured by 3×MBT.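 As to all read-outs here: mass spectrometry (Q-Exactive) SILAC quantitation, DMSO/UNC0638 ratio computed after subtracting 3×MBTD355N mutant pull-down background, only proteins with at least twofold 3×MBT over mutant signal considered.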 The class given is cell-based. Further details: endogenous in cells; host or cells: HEK 293T. The settings on record: all values in log base 2; for Relative to UNC0638 UNC Heavy / Relative to UNC0638 UNC Light: SILAC ratio DMSO relative to UNC0638, pull-down with 3xMBT; for Relative to UNC0638 UNC Heavy: UNC0638 in heavy SILAC media; for Relative to UNC0638 UNC Light: UNC0638 in light SILAC media; for Relative to UNC0638 Average: average of UNC Light and UNC Heavy experiments.

B1: RBM39 (protein, UniProt Q14498 2-530, looked up)
RNA-binding protein 39: ADDIDIEAMLEAPYKKDENKLSSANGHEERSKKRKKSKSRSRSHERKRSKSKERKRSRDRERKKSKSRERKRSRSKERRRSRSRSRDRRFRGRYRSPYSGPKFNSAIRGKIGLPHSIKLSRRRSRSKSPFRKDKSPVREPIDNLTPEERDARTVFCMQLAARIRPRDLEEFFSTVGKVRDVRMISDRNSRRSKGIAYVEFVDVSSVPLAIGLTGQRVLGVPIIVQASQAEKNRAAAMANNLQKGSAGPMRLYVGSLHFNITEDMLRGIFEPFGRIESIQLMMDSETGRSKGYGFITFSDSECAKKALEQLNGFELAGRPMKVGHVTERTDASSASSFLDSDELERTGIDLGTTGRLQLMARLAEGTGLQIPPAAQQALQMSGSLAFGAVAEFSFVIDLQTRLSQQTEASALAAAASVQPLATQCFQLSNMFNPQTEEEVGWDTEIKDDVIEECNKHGGVIHIYVDKNSAQGNVYVKCPSIAAAIAAVNALHGRWFAGKMITAAYVPLPTYHNLFPDSMTATQLLVPSRR
With B1, in the assay on 3×MBT domain of L3MBTL1, the “3xMBT/D355N UNC Heavy” value is 2.04 log base 2 and the “3xMBT/D355N UNC Light” value was 0.93 log base 2. For the same molecule, in the assay with G9a and GLP, the “Relative to UNC0638 UNC Heavy” value is listed as 0.03 log base 2, the “Relative to UNC0638 UNC Light” value was −0.03 log base 2 and the “Relative to UNC0638 Average” value was 0.00 log base 2.

B2: DHX36 (protein, UniProt Q9H2U1 1-1008, looked up)
ATP-dependent DNA/RNA …: MSYDYHQNWGRDGGPRSSGGGYGGGPAGGHGGNRGSGGGGGGGGGGRGGRGRHPGHLKGREIGMWYAKKQGQKNKEAERQERAVVHMDERREEQIVQLLNSVQAKNDKESEAQISWFAPEDHGYGTEVSTKNTPCSENKLDIQEKKLINQEKKMFRIRNRSYIDRDSEYLLQENEPDGTLDQKLLEDLQKKKNDLRYIEMQHFREKLPSYGMQKELVNLIDNHQVTVISGETGCGKTTQVTQFILDNYIERGKGSACRIVCTQPRRISAISVAERVAAERAESCGSGNSTGYQIRLQSRLPRKQGSILYCTTGIILQWLQSDPYLSSVSHIVLDEIHERNLQSDVLMTVVKDLLNFRSDLKVILMSATLNAEKFSEYFGNCPMIHIPGFTFPVVEYLLEDVIEKIRYVPEQKEHRSQFKRGFMQGHVNRQEKEEKEAIYKERWPDYVRELRRRYSASTVDVIEMMEDDKVDLNLIVALIRYIVLEEEDGAILVFLPGWDNISTLHDLLMSQVMFKSDKFLIIPLHSLMPTVNQTQVFKRTPPGVRKIVIATNIAETSITIDDVVYVIDGGKIKETHFDTQNNISTMSAEWVSKANAKQRKGRAGRVQPGHCYHLYNGLRASLLDDYQLPEILRTPLEELCLQIKILRLGGIAYFLSRLMDPPSNEAVLLSIRHLMELNALDKQEELTPLGVHLARLPVEPHIGKMILFGALFCCLDPVLTIAASLSFKDPFVIPLGKEKIADARRKELAKDTRSDHLTVVNAFEGWEEARRRGFRYEKDYCWEYFLSSNTLQMLHNMKGQFAEHLLGAGFVSSRNPKDPESNINSDNEKIIKAVICAGLYPKVAKIRLNLGKKRKMVKVYTKTDGLVAVHPKSVNVEQTDFHYNWLIYHLKMRTSSIYLYDCTEVSPYCLLFFGGDISIQKDNDQETIAVDEWIVFQSPARIAHLVKELRKELDILLQEKIESPHPVDWNDTKSRDCAVLSAIIDLIKTQEKATPRNFPPRFQDGYYS
Take B2: in the assay on 3×MBT domain of L3MBTL1, the “3xMBT/D355N UNC Heavy” value was found to be 1.95 log base 2 and the “3xMBT/D355N UNC Light” value stood at 2.83 log base 2. Besides, in the assay with G9a and GLP, the “Relative to UNC0638 UNC Heavy” value is 0.19 log base 2, the “Relative to UNC0638 UNC Light” value is listed as −0.24 log base 2 and the “Relative to UNC0638 Average” value is listed as −0.02 log base 2.

B3: IARS (protein, UniProt P41252 1-1262, looked up)
Isoleucine--tRNA ligase, …: MLQQVPENINFPAEEEKILEFWTEFNCFQECLKQSKHKPKFTFYDGPPFATGLPHYGHILAGTIKDIVTRYAHQSGFHVDRRFGWDCHGLPVEYEIDKTLGIRGPEDVAKMGITEYNNQCRAIVMRYSAEWKSTVSRLGRWIDFDNDYKTLYPQFMESVWWVFKQLYDKGLVYRGVKVMPFSTACNTPLSNFESHQNYKDVQDPSVFVTFPLEEDETVSLVAWTTTPWTLPSNLAVCVNPEMQYVKIKDVARGRLLILMEARLSALYKLESDYEILERFPGAYLKGKKYRPLFDYFLKCKENGAFTVLVDNYVKEEEGTGVVHQAPYFGAEDYRVCMDFNIIRKDSLPVCPVDASGCFTTEVTDFAGQYVKDADKSIIRTLKEQGRLLVATTFTHSYPFCWRSDTPLIYKAVPSWFVRVENMVDQLLRNNDLCYWVPELVREKRFGNWLKDARDWTISRNRYWGTPIPLWVSDDFEEVVCIGSVAELEELSGAKISDLHRESVDHLTIPSRCGKGSLHRISEVFDCWFESGSMPYAQVHYPFENKREFEDAFPADFIAEGIDQTRGWFYTLLVLATALFGQPPFKNVIVNGLVLASDGQKMSKRKKNYPDPVSIIQKYGADALRLYLINSPVVRAENLRFKEEGVRDVLKDVLLPWYNAYRFLIQNVLRLQKEEEIEFLYNENTVRESPNITDRWILSFMQSLIGFFETEMAAYRLYTVVPRLVKFVDILTNWYVRMNRRRLKGENGMEDCVMALETLFSVLLSLCRLMAPYTPFLTELMYQNLKVLIDPVSVQDKDTLSIHYLMLPRVREELIDKKTESAVSQMQSVIELGRVIRDRKTIPIKYPLKEIVVIHQDPEALKDIKSLEKYIIEELNVRKVTLSTDKNKYGIRLRAEPDHMVLGKRLKGAFKAVMTSIKQLSSEELEQFQKTGTIVVEGHELHDEDIRLMYTFDQATGGTAQFEAHSDAQALVLLDVTPDQSMVDEGMAREVINRIQKLRKKCNLVPTDEITVYYKAKSEGTYLNSVIESHTEFIFTTIKAPLKPYPVSPSDKVLIQEKTQLKGSELEITLTRGSSLPGPACAYVNLNICANGSEQGGVLLLENPKGDNRLDLLKLKSVVTSIFGVKNTELAVFHDETEIQNQTDLLSLSGKTLCVTAGSAPSLINSSSTLLCQYINLQLLNAKPQECLMGTVGTLLLENPLGQNGLTHQGLLYEAAKVFGLRSRKLKLFLNETQTQEITEDIPVKTLNMKTVYVSVLPTTADF
As for B3, in the assay on 3×MBT domain of L3MBTL1, the “3xMBT/D355N UNC Heavy” value is listed as 2.10 log base 2 and the “3xMBT/D355N UNC Light” value is given as 2.25 log base 2. In addition, in the assay with G9a and GLP, the “Relative to UNC0638 UNC Heavy” value is listed as −0.19 log base 2, the “Relative to UNC0638 UNC Light” value is reported as 0.21 log base 2 and the “Relative to UNC0638 Average” value is reported as 0.01 log base 2.
